Columns and labels:
[1] = target: His-Dwg wild type; test: GST pull-down; settings: parent: est. 41; read off a plot
[2] = target: GST-Atg8a wild type (UniProt Q9W2S2); test: GST pull-down; settings: parent: est. 27; read off a plot
UniProt Q9W2S2, sequence (Q9W2S2 entry or part of it): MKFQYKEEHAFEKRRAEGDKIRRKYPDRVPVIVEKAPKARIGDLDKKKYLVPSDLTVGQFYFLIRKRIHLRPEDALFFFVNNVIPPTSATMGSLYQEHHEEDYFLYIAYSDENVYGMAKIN

other: Fold Change [1]	other: Fold Change [2]	Substance
4.4	–	GST-Atg8a wild type (from UniProt Q9W2S2) Y49A
–	9.5	His-Dwg wild type Y129A; I132A

Reference: publication PMC11592666
